From patent publication US20250340902A1, “GENE THERAPY FOR BVES-RELATED DISORDERS” (OHIO STATE INNOVATION FOUNDATION, priority 2022, published 2025)

Key:
[1] = target: Cullin-associated NEDD8-dissociated protein 2 (Mus musculus) (UniProt Q6ZQ73); experiment: anti-HA co-IP from muscle, MS; CTRL 1
[2] = target: Collagen alpha-2(IV) chain (Mus musculus) (UniProt P08122); experiment: anti-HA co-IP from muscle, MS; CTRL 1
[3] = target: Glypican-1 (Mus musculus) (UniProt Q9QZF2); experiment: anti-HA co-IP from muscle, MS; CTRL 1
[4] = target: Caveolin-1 (Mus musculus) (UniProt P49817); experiment: anti-HA co-IP from muscle, MS; CTRL 1
[5] = target: Caveolae-associated protein 2 (Mus musculus) (UniProt Q63918); experiment: anti-HA co-IP from muscle, MS; CTRL 1
[6] = target: Ribosomal protein S6 kinase alpha-3 (Mus musculus) (UniProt P18654); experiment: anti-HA co-IP from muscle, MS; CTRL 1
Vinculin (Mus musculus) = Vinculin (Mus musculus) (UniProt Q64727); experiment: anti-HA co-IP from muscle, MS; CTRL 1
[7] = target: Caveolae-associated protein 3 (Mus musculus) (UniProt Q91VJ2); experiment: anti-HA co-IP from muscle, MS; CTRL 1
[8] = target: Alpha-1-syntrophin (Mus musculus) (UniProt Q61234); experiment: anti-HA co-IP from muscle, MS; CTRL 1
[9] = target: Alpha-sarcoglycan (Mus musculus) (UniProt P82350); experiment: anti-HA co-IP from muscle, MS; CTRL 1
[10] = target: Protein-cysteine N-palmitoyltransferase HHAT-like protein (Mus musculus) (UniProt Q9D1G3); experiment: anti-HA co-IP from muscle, MS; CTRL 1
[11] = target: Unconventional myosin-Ic (Mus musculus) (UniProt Q9WTI7); experiment: anti-HA co-IP from muscle, MS; CTRL 1
[12] = target: Glypican-4 (Mus musculus) (UniProt P51655); experiment: anti-HA co-IP from muscle, MS; CTRL 0
[13] = target: Poly(rC)-binding protein 2 (Mus musculus) (UniProt Q61990); experiment: anti-HA co-IP from muscle, MS; CTRL 2
[14] = target: Voltage-dependent L-type calcium channel subunit beta-1 (Mus musculus) (UniProt Q8R3Z5); experiment: anti-HA co-IP from muscle, MS; CTRL 2
[15] = target: PDZ and LIM domain protein 5 (Mus musculus) (UniProt Q8CI51); experiment: anti-HA co-IP from muscle, MS; CTRL 2
[16] = target: Succinate--CoA ligase [ADP-forming] subunit beta, mitochondrial (Mus musculus) (UniProt Q9Z2I9); experiment: anti-HA co-IP from muscle, MS; CTRL 2
[17] = target: Spectrin beta chain, erythrocytic (Mus musculus) (UniProt P15508); experiment: anti-HA co-IP from muscle, MS; CTRL 2
[18] = target: Caveolae-associated protein 1 (Mus musculus) (UniProt O54724); experiment: anti-HA co-IP from muscle, MS; CTRL 2
[19] = target: Tripartite motif-containing protein 72 (Mus musculus) (UniProt Q1XH17); experiment: anti-HA co-IP from muscle, MS; CTRL 2
[20] = target: Serine/arginine repetitive matrix protein 2 (Mus musculus) (UniProt Q8BTI8); experiment: anti-HA co-IP from muscle, MS; CTRL 2
[21] = target: Trimeric intracellular cation channel type A (Mus musculus) (UniProt Q3TMP8); experiment: anti-HA co-IP from muscle, MS; CTRL 2
[22] = target: Phosphorylase b kinase gamma catalytic chain, skeletal muscle/heart isoform (Mus musculus) (UniProt P07934); experiment: anti-HA co-IP from muscle, MS; CTRL 2
[23] = target: Calcium/calmodulin-dependent protein kinase type II subunit alpha (Mus musculus) (UniProt P11798); experiment: anti-HA co-IP from muscle, MS; CTRL 2
[24] = target: Very-long-chain enoyl-CoA reductase (Mus musculus) (UniProt Q9CY27); experiment: anti-HA co-IP from muscle, MS; CTRL 2
[25] = target: T-complex protein 1 subunit beta (Mus musculus) (UniProt P80314); experiment: anti-HA co-IP from muscle, MS; CTRL 2
Sequence of T-complex protein 1 subunit beta (Mus musculus) (P80314 2-535 limits assumed, one chain of several): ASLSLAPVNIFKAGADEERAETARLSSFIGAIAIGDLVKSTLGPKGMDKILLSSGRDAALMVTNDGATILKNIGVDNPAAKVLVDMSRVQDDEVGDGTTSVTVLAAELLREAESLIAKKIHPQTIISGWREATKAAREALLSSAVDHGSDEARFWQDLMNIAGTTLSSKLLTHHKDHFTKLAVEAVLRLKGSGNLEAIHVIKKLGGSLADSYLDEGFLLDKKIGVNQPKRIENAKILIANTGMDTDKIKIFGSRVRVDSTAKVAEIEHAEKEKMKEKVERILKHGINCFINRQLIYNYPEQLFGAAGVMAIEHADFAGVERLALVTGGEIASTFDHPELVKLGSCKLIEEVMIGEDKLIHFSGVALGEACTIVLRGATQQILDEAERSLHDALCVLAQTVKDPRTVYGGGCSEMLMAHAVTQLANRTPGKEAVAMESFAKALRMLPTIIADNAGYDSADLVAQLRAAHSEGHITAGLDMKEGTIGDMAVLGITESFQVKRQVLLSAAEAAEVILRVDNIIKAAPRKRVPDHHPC

Sequence of Poly(rC)-binding protein 2 (Mus musculus) (Q61990 whole entry): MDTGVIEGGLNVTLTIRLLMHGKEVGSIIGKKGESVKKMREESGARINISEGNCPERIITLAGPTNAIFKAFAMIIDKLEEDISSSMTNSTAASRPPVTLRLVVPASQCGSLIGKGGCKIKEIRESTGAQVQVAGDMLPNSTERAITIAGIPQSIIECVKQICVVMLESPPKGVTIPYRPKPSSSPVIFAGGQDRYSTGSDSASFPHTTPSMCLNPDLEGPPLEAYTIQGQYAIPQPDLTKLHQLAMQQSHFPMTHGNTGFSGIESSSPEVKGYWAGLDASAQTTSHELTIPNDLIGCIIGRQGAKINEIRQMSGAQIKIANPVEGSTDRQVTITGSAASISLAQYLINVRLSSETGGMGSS
Sequence of Glypican-4 (Mus musculus) (P51655 19-529 limits assumed): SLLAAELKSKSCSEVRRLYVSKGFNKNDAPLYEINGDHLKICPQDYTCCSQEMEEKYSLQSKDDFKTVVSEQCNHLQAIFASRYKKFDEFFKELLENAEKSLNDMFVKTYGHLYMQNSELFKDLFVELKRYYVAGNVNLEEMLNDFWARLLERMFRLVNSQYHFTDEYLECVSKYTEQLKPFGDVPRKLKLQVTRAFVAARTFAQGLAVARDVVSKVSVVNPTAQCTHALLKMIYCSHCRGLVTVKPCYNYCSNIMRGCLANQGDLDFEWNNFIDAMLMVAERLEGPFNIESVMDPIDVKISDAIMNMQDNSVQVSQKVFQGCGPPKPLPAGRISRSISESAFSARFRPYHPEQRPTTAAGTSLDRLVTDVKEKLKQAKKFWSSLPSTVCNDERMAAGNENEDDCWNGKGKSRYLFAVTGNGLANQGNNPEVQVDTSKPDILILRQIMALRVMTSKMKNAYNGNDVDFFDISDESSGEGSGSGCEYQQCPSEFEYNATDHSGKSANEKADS
Sequence of Calcium/calmodulin-dependent protein kinase type II subunit alpha (Mus musculus) (P11798 whole entry): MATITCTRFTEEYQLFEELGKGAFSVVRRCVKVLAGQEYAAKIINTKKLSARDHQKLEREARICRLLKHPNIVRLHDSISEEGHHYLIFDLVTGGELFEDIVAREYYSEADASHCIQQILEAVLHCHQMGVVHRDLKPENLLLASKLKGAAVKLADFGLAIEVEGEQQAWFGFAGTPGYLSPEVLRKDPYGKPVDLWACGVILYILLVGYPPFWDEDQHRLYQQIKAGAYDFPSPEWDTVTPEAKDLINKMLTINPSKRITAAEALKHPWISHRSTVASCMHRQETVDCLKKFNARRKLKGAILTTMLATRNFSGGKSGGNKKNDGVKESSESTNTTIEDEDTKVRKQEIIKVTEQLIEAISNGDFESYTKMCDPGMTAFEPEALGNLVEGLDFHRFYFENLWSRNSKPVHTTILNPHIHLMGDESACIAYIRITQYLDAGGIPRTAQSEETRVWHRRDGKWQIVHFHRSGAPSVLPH
Sequence of Succinate--CoA ligase [ADP-forming] subunit beta, mitochondrial (Mus musculus) (Q9Z2I9 54-463 limits assumed): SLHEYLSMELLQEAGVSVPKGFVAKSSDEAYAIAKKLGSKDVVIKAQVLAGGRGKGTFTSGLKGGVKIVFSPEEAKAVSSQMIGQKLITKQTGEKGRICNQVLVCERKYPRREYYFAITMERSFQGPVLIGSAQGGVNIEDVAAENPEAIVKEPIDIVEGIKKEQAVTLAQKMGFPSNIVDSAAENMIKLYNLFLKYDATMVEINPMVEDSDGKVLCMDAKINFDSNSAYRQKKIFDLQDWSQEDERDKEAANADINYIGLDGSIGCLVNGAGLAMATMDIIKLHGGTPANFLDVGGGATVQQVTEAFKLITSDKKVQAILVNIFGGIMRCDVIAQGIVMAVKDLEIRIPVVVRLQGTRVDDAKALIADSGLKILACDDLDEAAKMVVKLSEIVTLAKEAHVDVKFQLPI
Sequence of Ribosomal protein S6 kinase alpha-3 (Mus musculus) (P18654 whole entry): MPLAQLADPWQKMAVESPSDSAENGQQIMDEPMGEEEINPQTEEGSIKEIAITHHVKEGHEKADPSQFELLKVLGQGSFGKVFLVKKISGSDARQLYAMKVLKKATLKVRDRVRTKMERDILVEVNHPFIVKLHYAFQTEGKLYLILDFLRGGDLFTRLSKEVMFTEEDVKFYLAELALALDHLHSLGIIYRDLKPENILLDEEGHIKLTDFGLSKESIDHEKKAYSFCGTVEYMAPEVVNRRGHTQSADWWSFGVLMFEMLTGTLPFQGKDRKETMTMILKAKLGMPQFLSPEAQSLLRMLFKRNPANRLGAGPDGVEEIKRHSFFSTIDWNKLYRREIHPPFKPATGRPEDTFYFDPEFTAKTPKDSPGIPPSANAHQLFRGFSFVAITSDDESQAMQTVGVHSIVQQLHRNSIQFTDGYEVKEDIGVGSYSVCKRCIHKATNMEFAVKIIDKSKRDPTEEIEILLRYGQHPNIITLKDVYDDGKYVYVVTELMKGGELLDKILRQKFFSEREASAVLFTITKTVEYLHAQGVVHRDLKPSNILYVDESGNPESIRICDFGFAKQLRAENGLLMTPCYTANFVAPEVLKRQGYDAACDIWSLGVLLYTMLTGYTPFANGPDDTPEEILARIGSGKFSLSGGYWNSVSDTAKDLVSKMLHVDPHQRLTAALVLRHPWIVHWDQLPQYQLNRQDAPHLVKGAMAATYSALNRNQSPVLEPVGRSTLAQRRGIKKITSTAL
Sequence of Unconventional myosin-Ic (Mus musculus) (Q9WTI7 whole entry): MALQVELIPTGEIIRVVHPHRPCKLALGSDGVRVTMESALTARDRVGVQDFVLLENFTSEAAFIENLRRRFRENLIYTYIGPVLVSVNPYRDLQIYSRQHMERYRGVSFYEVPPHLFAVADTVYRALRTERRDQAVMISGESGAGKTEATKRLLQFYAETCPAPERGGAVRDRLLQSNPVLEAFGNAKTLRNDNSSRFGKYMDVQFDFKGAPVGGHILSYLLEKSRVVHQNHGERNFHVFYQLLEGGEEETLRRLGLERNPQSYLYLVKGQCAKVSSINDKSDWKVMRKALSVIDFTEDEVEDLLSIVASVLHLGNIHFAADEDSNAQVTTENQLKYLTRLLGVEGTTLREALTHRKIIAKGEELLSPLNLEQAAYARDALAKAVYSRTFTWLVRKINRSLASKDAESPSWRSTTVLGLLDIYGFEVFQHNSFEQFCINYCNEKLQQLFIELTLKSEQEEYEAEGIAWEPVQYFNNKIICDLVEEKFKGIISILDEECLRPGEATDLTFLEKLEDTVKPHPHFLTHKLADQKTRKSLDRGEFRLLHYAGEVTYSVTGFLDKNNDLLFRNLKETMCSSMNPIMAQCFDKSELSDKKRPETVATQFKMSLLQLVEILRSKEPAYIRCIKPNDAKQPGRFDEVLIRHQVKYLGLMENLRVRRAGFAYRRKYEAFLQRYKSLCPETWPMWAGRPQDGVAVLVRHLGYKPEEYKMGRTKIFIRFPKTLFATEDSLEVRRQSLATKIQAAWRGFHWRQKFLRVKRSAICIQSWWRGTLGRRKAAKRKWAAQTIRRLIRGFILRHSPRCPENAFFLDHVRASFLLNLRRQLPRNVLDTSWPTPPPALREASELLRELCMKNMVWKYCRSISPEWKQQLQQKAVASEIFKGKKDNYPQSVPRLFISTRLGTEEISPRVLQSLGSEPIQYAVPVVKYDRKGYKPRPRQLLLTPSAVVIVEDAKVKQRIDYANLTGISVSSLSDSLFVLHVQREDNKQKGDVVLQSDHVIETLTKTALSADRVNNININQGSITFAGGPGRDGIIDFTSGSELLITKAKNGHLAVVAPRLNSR
Sequence of Caveolae-associated protein 1 (Mus musculus) (O54724 whole entry): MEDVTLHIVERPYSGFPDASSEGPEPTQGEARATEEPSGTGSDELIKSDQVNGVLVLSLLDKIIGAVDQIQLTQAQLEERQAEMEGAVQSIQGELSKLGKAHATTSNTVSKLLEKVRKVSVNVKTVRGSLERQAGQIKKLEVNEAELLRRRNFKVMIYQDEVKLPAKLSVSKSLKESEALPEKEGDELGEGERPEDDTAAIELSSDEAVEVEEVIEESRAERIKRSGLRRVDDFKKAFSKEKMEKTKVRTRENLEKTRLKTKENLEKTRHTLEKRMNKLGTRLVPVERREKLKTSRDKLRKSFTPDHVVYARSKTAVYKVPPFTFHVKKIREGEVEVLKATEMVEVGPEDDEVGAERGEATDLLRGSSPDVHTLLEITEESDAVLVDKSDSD
Sequence of Glypican-1 (Mus musculus) (Q9QZF2 24-529 limits assumed): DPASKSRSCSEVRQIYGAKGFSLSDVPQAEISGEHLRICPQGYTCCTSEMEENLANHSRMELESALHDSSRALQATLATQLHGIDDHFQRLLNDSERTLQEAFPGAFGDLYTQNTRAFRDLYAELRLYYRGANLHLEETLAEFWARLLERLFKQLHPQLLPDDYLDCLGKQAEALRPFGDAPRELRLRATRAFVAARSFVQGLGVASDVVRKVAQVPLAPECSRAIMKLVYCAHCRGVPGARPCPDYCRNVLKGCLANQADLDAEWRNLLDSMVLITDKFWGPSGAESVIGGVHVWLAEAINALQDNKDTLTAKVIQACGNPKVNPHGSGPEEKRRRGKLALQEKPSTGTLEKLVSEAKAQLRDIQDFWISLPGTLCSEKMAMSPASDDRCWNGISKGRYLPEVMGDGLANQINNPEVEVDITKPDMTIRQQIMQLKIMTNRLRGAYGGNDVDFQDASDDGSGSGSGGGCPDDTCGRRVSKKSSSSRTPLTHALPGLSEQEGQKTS

AAV9-BVES-HA (IP-MS count) [1]: 16 | AAV9-BVES-HA (IP-MS count) [2]: 5 | AAV9-BVES-HA (IP-MS count) [3]: 11 | AAV9-BVES-HA (IP-MS count) [4]: 8 | AAV9-BVES-HA (IP-MS count) [5]: 12 | AAV9-BVES-HA (IP-MS count) [6]: 20 | AAV9-BVES-HA (IP-MS count) (Vinculin (Mus musculus)): 5 | AAV9-BVES-HA (IP-MS count) [7]: 11 | AAV9-BVES-HA (IP-MS count) [8]: 11 | AAV9-BVES-HA (IP-MS count) [9]: 5 | AAV9-BVES-HA (IP-MS count) [10]: 5 | AAV9-BVES-HA (IP-MS count) [11]: 7 | AAV9-BVES-HA (IP-MS count) [12]: 11 | AAV9-BVES-HA (IP-MS count) [13]: 6 | AAV9-BVES-HA (IP-MS count) [14]: 6 | AAV9-BVES-HA (IP-MS count) [15]: 7 | AAV9-BVES-HA (IP-MS count) [16]: 8 | AAV9-BVES-HA (IP-MS count) [17]: 41 | AAV9-BVES-HA (IP-MS count) [18]: 19 | AAV9-BVES-HA (IP-MS count) [19]: 6 | AAV9-BVES-HA (IP-MS count) [20]: 11 | AAV9-BVES-HA (IP-MS count) [21]: 7 | AAV9-BVES-HA (IP-MS count) [22]: 6 | AAV9-BVES-HA (IP-MS count) [23]: 11 | AAV9-BVES-HA (IP-MS count) [24]: 9 | AAV9-BVES-HA (IP-MS count) [25]: 6
Substance: human BVES fused with 3xHA tag (from UniProt Q8NE79 1-360)
